According to publication PMC2753740:

Target: cp283Δ8, cp283 with an eight-amino acid deletion in the loop connecting the native termini (Candida antarctica)
Assay: SEC

stoichiometry N: 3
Substance: cp283Δ8, cp283 with an eight-amino acid deletion in the loop connecting the native termini (enzyme)
